Experimental data published in patent US20240207432A1 (BIOSION, published 2024).
Where a chain is given by its changes, count along the chain named.

Legend:
[1] = biological target: T1, human TROP2-his protein (human, UniProt P09758 27-274); experiment: competitive ELISA: mouse A1E11A12D1 coated at 2 ug/mL, antibody premixed with biotin human TROP2-his; blocked: binding of TROP2-his to coated A1E11A12D1 (self-competition)
T1 construct: Biotin-labelled in the ELISAs, unlabelled analyte in Biacore; also called biotin-labeled human TROP2-his protein; biotin human Trop2-his
T1 sequence: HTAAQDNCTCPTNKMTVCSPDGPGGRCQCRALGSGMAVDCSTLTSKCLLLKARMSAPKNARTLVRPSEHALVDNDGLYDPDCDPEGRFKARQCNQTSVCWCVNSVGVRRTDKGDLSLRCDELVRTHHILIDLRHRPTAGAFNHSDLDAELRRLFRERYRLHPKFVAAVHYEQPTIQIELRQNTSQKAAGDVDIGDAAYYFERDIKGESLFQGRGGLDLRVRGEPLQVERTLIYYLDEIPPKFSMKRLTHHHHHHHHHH
Protocol: (§1) The mouse anti-TROP2 antibodies were tested for epitope binding in a competitive ELISA assay. […] ELISA plates were washed once with wash buffer (PBS+0.05% v/v Tween-20, PBST) and then blocked with 200 μl blocking buffer (5% w/v non-fatty milk in PBST) for 2 hours at 37° C. While blocking, the anti-TROP2 antibodies or controls were diluted with biotin labeled human TROP2-his protein (SEQ ID NO: 67, 34 ng/mL in 2.5% wA non-fatty milk in PBST), starting at 80 nM with a 5-fold serial dilution, and incubated at room temperature for 40 minutes. After plate washing for 4 times, the antibody/TROP2-his protein mixtures were added to the antibody coated plates, 100 μl per well. After incubation at 37° C. for 40 minutes, plates were washed 4 times again using wash buffer. Then the plates were added and incubated with 100 μl Peroxidase Streptavidin (1:10000 dilution in PBST buffer. Jackson Immunoresearch, Cat #016-030-084) for 40 minutes at 37° C. Plates were washed again using wash buffer. Finally, TMB was added and the reaction was stopped using 1M H₂SO₄. The absorbance of each well was read on a microplate reader using dual wavelength mode with 450 nm for TMB and 630 nm as the reference wavelength, and the OD (450-630) values were plotted against antibody concentration. Data was analyzed using Graphpad Prism software and IC₅₀ values were reported.

[2] = biological target: T1, human TROP2-his protein; experiment: competitive ELISA: mouse A1E4F7D4 coated at 2 ug/mL, antibody premixed with biotin human TROP2-his; blocked: binding of TROP2-his to coated A1E4F7D4; no lower plateau reached at 80 nM
Protocol: as §1

[3] = biological target: T1, human TROP2-his protein; experiment: SPR Biacore, antibody captured on anti-human IgG CM5 chip, TROP2-his analyte
Protocol: Un-reacted moieties on the chip (biosensor) surface were blocked with ethanolamine. […] The antigen-antibody association kinetics was followed for 2 minutes and the dissociation kinetics was followed for 10 minutes. The association and dissociation curves were fit to a 1:1 Langmuir binding model using BIAcore evaluation software.

[4] = biological target: T1, human TROP2-his protein; experiment: capture ELISA, captured antibody, biotin human TROP2-his in solution, OD(450-630)
Protocol: (§2) Plates were washed once with wash buffer (PBS+0.05% v/v Tween-20, PBST) and then blocked with 200 μl/well blocking buffer (5% w/v non-fatty milk in PBST) for 2 hours at 37° C. […] Plates containing captured anti-TROP2 antibodies were incubated with biotin-labeled human TROP2-his protein (prepared in house, SEQ ID NO: 67, 56.7 ng/mL in 2.5% w/v non-fatty milk in PBST, 100 μl/well) for 40 minutes at 37° C., washed 4 times, and incubated with streptavidin conjugated HRP (1:10000 dilution in PBST, Jackson Immuno Research, Cat #016-030-084, 100 μl/well) for 40 minutes at 37° C. After a final wash, plates were incubated with 100 μl/well ELISA substrate TMB (Innoreagents, Cat #TMB-S-002) at room temperature. The reaction was stopped in 3-10 minutes at room temperature with 50 μl/well 1M H₂SO₄, and the absorbance of each well was read on a microplate reader using dual wavelength mode with 450 nm for TMB and 630 nm as the reference wavelength. The OD (450-630) values were plotted against antibody concentration. Data was analyzed using Graphpad Prism software and EC₅₀ values were reported.

[5] = biological target: T1, human TROP2-his protein; experiment: capture ELISA, antibody captured on anti-human IgG Fc coat, biotin human TROP2-his in solution, OD(450-630)
Protocol: as §2
For the capture ELISA, AffiniPure Goat Anti-Human IgG, Fcγ fragment specific (Jackson Immuno Research, Cat #109-005-098) was used instead of AffiniPure Goat Anti-Mouse IgG, Fcγ fragment specific, 100 μl/well.

[6] = biological target: T1, human TROP2-his protein; experiment: competitive ELISA: BM1 coated at 1 ug/mL, antibody premixed with biotin human TROP2-his; blocked: binding of TROP2-his to coated BM1 (self-competition)
Protocol: as §1

[7] = biological target: T1, human TROP2-his protein; experiment: competitive ELISA: BM1 coated at 1 ug/mL, antibody premixed with biotin human TROP2-his; blocked: binding of TROP2-his to coated BM1; partial only: OD drops from about 1.45 to a plateau of about 0.8
Protocol: as §1

[8] = biological target: T1, human TROP2-his protein; experiment: capture ELISA, captured antibody, biotin human TROP2-his in solution, OD(450-630); remark: listed apart in the source
[9] = biological target: T1, human TROP2-his protein; experiment: competitive ELISA: mouse A1E11A12D1 coated at 2 ug/mL, antibody premixed with biotin human TROP2-his; blocked: binding of TROP2-his to coated A1E11A12D1
Protocol: as §1

[10] = biological target: T1, human TROP2-his protein; experiment: SPR Biacore, compared with BM2
[11] = biological target: T1, human TROP2-his protein; experiment: SPR Biacore, human TROP2-his analyte

B1: mouse antibody A1E11A12D1 (antibody, V domains shown)
VH: QVQLQQSGAELARPGASVKLSCMASGYTFTTYGISWVRQRTGQGLEWIGQIYPGSDYSYCDEDFKGKATLTADKSSSTAYMQLSSLTSEDSAVYFCARASYFDYWGQGTTLTVSS
VL: DILLTQSPAILSVSPGERVSFSCRASQTIGTAIHWYQQRANGSPRLLIKYASESISGIPSRFSGSGSGTDFALSINTVESEDFAYYYCQQSNNWPFTFGGGTKLEIR
notes: Mouse monoclonal IgG purified from hybridoma supernatant
[1]
  IC50: 1 nM

B2: mouse antibody A1H3C5H8E12 (antibody, V domains shown)
VH: QVQLQQSGAELVRPGTSVKMSCKAAGYTFTNYWIDWVKQRPGHGLEWIGNIFPGGFYTNYNEKFKGKATLTADTSSSTAYMQLSSLTSEDSAIYYCARGGVFDYWGQGTTLTVSS
VL: B1 VL with T28S, A32S, A40T, A72T, T77S, F83I, Y85D, N93S, F96Y, R107K
notes: as for B1
[2]
  IC50: 4.09 nM

B3: benchmark (in house prepared sacituzumab) (antibody, human IgG1, kappa, V domains shown)
VH: SVQLQQSGSELKKPGASVKVSCKASGYTFTNYGMNWVKQAPGQGLKWMGWINTYTGEPTYTDDFKGRFAFSLDTSVSTAYLQISSLKADDTAVYFCARGGFGSSYWYFDVWGQGSLVTVSS
VL: DIQLTQSPSSLSASVGDRVSITCKASQDVSIAVAWYQQKPGKAPKLLIYSASYRYTGVPDRFSGSGSGTDFTLTISSLQPEDFAVYYCQQHYITPLTFGAGTKVEIKR
notes: also called BM; BM1
[3]
  Kd: 0.385 nM
[4]
  EC50: 0.141 nM
[5]
  EC50: 0.27 nM
[6]
  IC50: 1.28 nM

B4: mouse antibody C1B3B12D2 (antibody, V domains shown)
VH: QVQLQQSGPELVRPGTSVKMSCKAAGYTFTKFWIGWVKQRPGHGLEWIGNIYPGGAYINYNENFKGKATLTADTFSSTAYMQLNSLTSADSAIYYCAREGSSGYWGQGTTLTVSS
VL: DIVMTQSPSSLTVTAGEKVTLSCKCSQSLLNSGTQENYLTWYQQKPGQPPKMLIYWASIREPGVPDRFTGSGSGTDFTLTINNVQAEDLAVYYCQHDYSYPFTFGSGTKLEIK
notes: as for B1
[7]
  IC50: ~0.6 nM

B5: mouse antibody A1E4F7D4 (antibody, V domains shown)
VH: QVQLQQSGAELAKPGTSVKMSCEASGYSFTTHWIHWMKQRPGQGLEWIGTIFPSNAYAVYNQKFRDRAIMTADRSSTTAYIQLTGLTSEDSAVYYCARASYFDYWGQGTTLTVSS
VL: DILLTQSPATLSVSPGERVTFSCRASQNIGTSIHWFQQRTTGSPRLLIKYASESISGIPSRFSGSGSGTDFTLHINSVESEDIAHYYCQHSHSWPFTFGSGTKLEIQ
notes: Mouse monoclonal IgG purified from hybridoma supernatant; also called Mouse A1E4F7D4
[8]
  EC50: 0.147 nM
[9]
  IC50: 0.584 nM

B6: huA1E4F7D4-V16 (antibody, human IgG1, kappa, V domains shown)
VH: QVQLVQSGAEVKKPGASVKVSCKASGYSFTTHWIHWVRQAPGQGLEWIGTIFPSNAYAVYNQKFRDRATMTADTSISTAYIELSRLRSDDTAVYYCARASYFDYWGQGTTVTVSS
VL: EIVLTQSPATLSLSPGERATLSCRASQNIGTSIHWFQQKPGGAPRLLIKYASESISGIPSRFSGSGSGTDFTLTISSLEPEDFAVYYCQHSHSWPFTFGQGTKLEIKR
notes: Positions of the X residues are given in the claims; also called humanized antibody huA1E4F7D4-V16
[10]
  fold higher affinity than BM2: > 100 fold
[11]
  Kd: 0.196 nM
  koff: 7.92e-05 s⁻¹
  kon: 404000 M⁻¹ s⁻¹
